According to US20130059773A1, “COMPOUNDS FOR THE TREATMENT OF INFLAMMATION AND NEUTROPENIA” (priority 2010, published 2013):

T1: procaspase-9 (Homo sapiens, UniProt P55211)
T1 construct: using neutrophil cytosol containing all the apoptosome components, i.e., procaspase-9; endogenous in cells; host or cells: neutrophil cytosol (primary neutrophils)
T1 sequence (P55211 1-416): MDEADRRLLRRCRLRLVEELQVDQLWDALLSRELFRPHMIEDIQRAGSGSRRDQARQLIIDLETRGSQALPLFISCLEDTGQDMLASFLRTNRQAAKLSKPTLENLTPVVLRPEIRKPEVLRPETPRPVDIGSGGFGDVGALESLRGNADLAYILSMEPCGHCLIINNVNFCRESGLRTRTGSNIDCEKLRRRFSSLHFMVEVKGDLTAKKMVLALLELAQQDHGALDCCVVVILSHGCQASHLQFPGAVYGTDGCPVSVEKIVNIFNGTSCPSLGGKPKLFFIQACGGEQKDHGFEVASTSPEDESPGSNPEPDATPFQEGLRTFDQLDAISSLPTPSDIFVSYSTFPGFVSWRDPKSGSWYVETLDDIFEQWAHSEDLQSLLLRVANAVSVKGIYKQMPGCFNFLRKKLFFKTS


Experiments:
PCNA = PCNA expression in neutrophils by Western blot; type: cell-based, human; conditions: G-CSF 1000 U/ml, 6 h to 15 h
Method: Western blot analysis and co-immunoprecipitation experiments. Neutrophils were sonicated and cytosolic proteins were analyzed using either the PC10 mAb or the Ab5 pAb anti-PCNA according to standard immunoblot procedures (Moriceau et al. 2009, J. Immunol. 182:7254-7263). Co-immunoprecipitation experiments were performed using neutrophil cytosols obtained by cavitation (Witko-Sarsat et al. 1999, Blood 94:2487-2496). Cytosol ([…]) was mixed with […] of protein G and Ab5 pAb and incubated for 30 min at 4° C. under shaking. The sample was loaded onto a column containing Sepharose-coated magnetic beads (Milteny), washed with a stringent washing buffer (50 mM Tris, 500 mM NaCl, 1% NP-40, 0.5% Triton X-100). […] The sample was eluted from the column with […] 5× sample buffer and analyzed by Western blotting using different mAb to potential partners. PCNA was detected on the Western blot with the PC10 mAb and procaspases were detected with either anti-procaspase-8 (Calbiochem) mAb or mouse anti-procaspase-10 (Santa Cruz) or anti-procaspase-9 (Santa Cruz) or anti-procaspase-3 (Santa Cruz) mAbs, followed by horseradish peroxidase-conjugated anti-mouse IgG (Nordic Immunology diluted 1:5000), using the SuperSignal West Pico detection kit (Pierce).

neutrophils [1] = test: Neutrophils isolated from G-CSF-treated healthy donors: PCNA content and constitutive apoptosis; type: in vivo, human
Method: Neutrophil isolation, granulocytic differentiation of CD34^+ precursors and cell culture. Human neutrophils from healthy (Etablissement Francais du Sang, Paris) or G-CSF-treated healthy donors ([…] for 5 days to induce hematopoietic stem cells mobilization) (Biotherapy Department, Necker Hospital, France) were isolated from EDTA-anticoagulated blood, using density-gradient centrifugation through polymorphoprep (Nycomed), as described in Witko-Sarsat et al. (1999, Blood 94:2487-2496). […]
Western blot analysis and co-immunoprecipitation experiments. Neutrophils were sonicated and cytosolic proteins were analyzed using either the PC10 mAb or the Ab5 pAb anti-PCNA according to standard immunoblot procedures (Moriceau et al. 2009, J. Immunol. 182:7254-7263). […] The sample was eluted from the column with […] 5× sample buffer and analyzed by Western blotting using different mAb to potential partners. PCNA was detected on the Western blot with the PC10 mAb and procaspases were detected with either anti-procaspase-8 (Calbiochem) mAb or mouse anti-procaspase-10 (Santa Cruz) or anti-procaspase-9 (Santa Cruz) or anti-procaspase-3 (Santa Cruz) mAbs, followed by horseradish peroxidase-conjugated anti-mouse IgG (Nordic Immunology diluted 1:5000), using the SuperSignal West Pico detection kit (Pierce).

neutrophils [2] = test: Neutrophil apoptosis/survival by phosphatidylserine externalization after annexin-V and 7-AAD labeling; type: cell-based, human; conditions: G-CSF 200 or 1000 U/ml, 15 h at 37° C.
Method: Analysis of apoptosis. Neutrophil apoptosis was triggered by incubating neutrophils at 37° C. alone (constitutive apoptosis) or with anti-Fas mAb (10 ng/ml; Beckman-Coulter) or gliotoxin ([…]; Sigma) (Ward et al. 1999, J. Biol. Chem. 274:4309-4318) for the indicated times. Neutrophil apoptosis was evaluated by phosphatidylserine externalization after annexin-V and 7-AAD labeling (Kantari et al. 2007, Blood 110:4086-4095); mitochondrial depolarization after DiOC6 labeling (Moriceau et al. 2009, J. Immuno1.182:7254-7263); caspase-3 and caspase-8 activities measured by spectrophotometry (Biovision) in neutrophil lysates. In DMF-differentiated-PLB985 cells, apoptosis was triggered by gliotoxin or by rTRAIL (10 ng/ml; RD System) (Yin et al. 2005, Int. J. Biochem. Cell Biol. 37:1696-1708) and caspase-8 and caspase-9 activities were determined after gating on CD11b^+ cells using the Caspase-Glow® assay (Promega). Apoptosis-induced chromatin condensation and DNA fragmentation were assessed, respectively, after DNA staining with the blue fluorescent dye Hoechst (5 mg/ml) and propidium-iodide staining (Goepel et al. 2004, J. Leukoc. Biol. 75:836-843). Carboxyp21 ([…], SEQ ID NO: 24) corresponding to the p21 carboxy-terminus sequence (residues 141-160) and containing a RYIRS carboxy-terminal extension to facilitate its cell entry was synthesized and purified (Genecust). […]

procaspase-9 = molecular target: T1, procaspase-9; test: In vitro procaspase-9 activation assay using neutrophil cytosol, cytochrome c and dATP; type: biochemical; set-up: dose or concentration left out as unconfirmed
Method: That hypothesis was tested by evaluating procaspase-9 cleavage in an in vitro assay, using neutrophil cytosol containing all the apoptosome components, i.e., procaspase-9 and apoptotic protease-activating factor-1 (Apaf-1) as previously described (McStay et al. 2008; Cell Death Differ. 15:322-331).

Molecule	Effect on decrease of PCNA expression during incubation at 37° C. (PCNA)	PCNA content of neutrophils from treated donors (immunoblotting) (neutrophils [1]; healthy donors treated with G-CSF for 5 days, compared to before treatment)	Constitutive apoptosis of neutrophils from treated donors (neutrophils [1]; healthy donors treated with G-CSF, 15-h culture)	Neutrophil survival (annexin-V− 7-AAD− cells) (neutrophils [2])	Procaspase-9 cleavage / activation (procaspase-9)
G-CSF: survival factor extending neutrophil longevity (protein, UniProt P09919 31-207, looked up) Granulocyte …: TPLGPASSLPQSFLLKCLEQVRKIQGDGAALQEKLVSECATYKLCHPEELVLLGHSLGIPWAPLSSCPSQALQLAGCLSQLHSGLFLYQGLLQALEGISPELGPTLDTLQLDVADFATTIWQQMEELGMAPALQPTQGAMPAFASAFQRRAGGVLVASHLQSFLEVSYRVLRHLAQP	totally prevented	markedly increased	decreased tendency of these neutrophils to undergo constitutive apoptosis	prolonged neutrophil survival	
Ovalbumin: control protein tested at the same concentration (protein, UniProt P01012 2-386, looked up) Ovalbumin: GSIGAASMEFCFDVFKELKVHHANENIFYCPIAIMSALAMVYLGAKDSTRTQINKVVRFDKLPGFGDSIEAQCGTSVNVHSSLRDILNQITKPNDVYSFSLASRLYAEERYPILPEYLQCVKELYRGGLEPINFQTAADQARELINSWVESQTNGIIRNVLQPSSVDSQTAMVLVNAIVFKGLWEKAFKDEDTQAMPFRVTEQESKPVQMMYQIGLFRVASMASEKMKILELPFASGTMSMLVLLPDEVSGLEQLESIINFEKLTEWTSSNVMEERKIKVYLPRMKMEEKYNLTSVLMAMGITDVFSSSANLSGISSAESLKISQAVHAAHAEINEAGREVVGSAEAGVDAASVSEEFRADHPFLFCIKHIATNAVLFFGRCVSP					did not affect pro-caspase 9 activation
